For 167 variants, self-cleavage results are on record in the RNAGym collection of RNA variant scans (doi:10.7554/elife.80360).

B1: Hammerhead Ribozyme (parent)
chain: ACCGGAUGUGCUUUCCGGUCUGAUGAGUCCGUGAGGACGAAACAG

In the series the parent is B1. Nature of the series: self-cleavage, relative activity (ratio to wild type); higher = more cleavage; co-transcriptional.
In the case of U21G C29G, the self-cleavage turned out to be 0.285.

On to U21G C29A, for which the self-cleavage was found to be 0.3.

Consider U21G C29U, for which the self-cleavage came out at 0.471.

With C20U G25A, the self-cleavage worked out at 0.756.

For the variant C20U G25U, the self-cleavage was determined as 0.328.

Regarding C20U G25C, the self-cleavage came out at 0.273.

As for U21G A34G, the self-cleavage is 0.602.

In the case of U21G A34C, the self-cleavage came to 0.278.

Regarding U21G A34U, the self-cleavage was found to be 0.348.

For the variant C20U A37U, the self-cleavage was 0.403.

On to C20U A37G, for which the self-cleavage came to 0.565.

Take C20U A37C: the self-cleavage amounted to 0.549.

In the case of U21G U24G, the self-cleavage was determined as 0.536.

On to U21G U24C, for which the self-cleavage stood at 0.391.

In the case of U21G U24A, the self-cleavage came to 0.814.

In the case of C20U G22C, the self-cleavage was 0.377.

As for C20U G22A, the self-cleavage was 0.338.

With C20U G22U, the self-cleavage stood at 0.341.

As to C20U U32A, the self-cleavage was found to be 0.506.

With C20U U32C, the self-cleavage came out at 0.395.

For the variant C20U U32G, the self-cleavage is 0.494.

For the variant U21C A23C, the self-cleavage turned out to be 0.771.

As for U21C A23U, the self-cleavage turned out to be 0.708.

Consider U21C A23G, for which the self-cleavage worked out at 0.354.

Take U21C A26C: the self-cleavage is 0.404.

Consider U21C A26U, for which the self-cleavage was 0.503.

Turning to U21C A26G, the self-cleavage is 0.295.

Regarding C20U G31U, the self-cleavage was found to be 0.718.

With C20U G31A, the self-cleavage came to 0.783.

Regarding C20U G31C, the self-cleavage is 0.489.

U21A G45U: the self-cleavage is 0.432.

With U21A G45A, the self-cleavage came out at 0.329.

With U21A G45C, the self-cleavage was determined as 0.335.

As to U21G A26U, the self-cleavage was 0.431.

For U21G A26G, the self-cleavage came to 0.343.

As to U21G A26C, the self-cleavage was found to be 0.237.

Regarding U21C G27U, the self-cleavage was 0.361.

As to U21C G27C, the self-cleavage is 0.557.

Consider U21C G27A, for which the self-cleavage came to 0.597.

For the variant U21A A26U, the self-cleavage was 0.356.

Regarding U21A A26C, the self-cleavage is 0.299.

For U21A A26G, the self-cleavage was found to be 0.346.

As for U21A G36U, the self-cleavage came out at 0.418.

On to U21A G36A, for which the self-cleavage amounted to 0.41.

As to U21A G36C, the self-cleavage was determined as 0.283.

Take C20G G36A: the self-cleavage came to 0.31.

For C20G G36U, the self-cleavage turned out to be 0.305.

On to C20G G36C, for which the self-cleavage is 0.274.

In the case of U21A G33U, the self-cleavage turned out to be 0.55.

Turning to U21A G33A, the self-cleavage turned out to be 0.808.

With U21A G33C, the self-cleavage came out at 0.584.

In the case of U21C C30U, the self-cleavage was 0.891.

On to U21C C30G, for which the self-cleavage was found to be 0.403.

U21C C30A: the self-cleavage is 0.494.

For the variant C20G U24C, the self-cleavage is 0.302.

Turning to C20G U24A, the self-cleavage turned out to be 0.399.

For the variant C20G U24G, the self-cleavage is 0.353.

With U21A G31U, the self-cleavage came to 0.554.

U21A G31A: the self-cleavage was 0.634.

In the case of U21A G31C, the self-cleavage was determined as 0.532.

In the case of U21A A42U, the self-cleavage was found to be 0.402.

U21A A42G: the self-cleavage was found to be 0.307.

With U21A A42C, the self-cleavage came out at 0.382.

As for G22A, the self-cleavage is 0.356.

With U21C C29G, the self-cleavage turned out to be 0.507.

Turning to U21C C29A, the self-cleavage came to 0.37.

In the case of U21C C29U, the self-cleavage stood at 0.84.

Take U21C A41G: the self-cleavage turned out to be 0.297.

In the case of U21C A41C, the self-cleavage came out at 0.329.

U21C A41U: the self-cleavage was found to be 0.469.

Consider C20G U21C, for which the self-cleavage came out at 0.305.

For the variant C20G U21A, the self-cleavage worked out at 0.286.

C20G U21G: the self-cleavage is 0.376.

For U21G C38A, the self-cleavage amounted to 0.388.

Turning to U21G C38U, the self-cleavage was determined as 0.374.

As to U21G C38G, the self-cleavage was 0.303.

Regarding U21G G33A, the self-cleavage is 0.704.

For U21G G33C, the self-cleavage is 0.867.

Take U21G G33U: the self-cleavage was 0.798.

Take C20U C43A: the self-cleavage amounted to 0.264.

Regarding C20U C43U, the self-cleavage is 0.325.

As to C20U C43G, the self-cleavage turned out to be 0.278.

On to C20G U32A, for which the self-cleavage is 0.305.

For the variant C20G U32G, the self-cleavage was 0.28.

In the case of C20G U32C, the self-cleavage worked out at 0.325.

Consider U21G G36A, for which the self-cleavage was determined as 0.382.

Turning to U21G G36C, the self-cleavage is 0.365.

As for U21G G36U, the self-cleavage turned out to be 0.333.

As for U21G A41G, the self-cleavage was 0.29.

Consider U21G A41U, for which the self-cleavage amounted to 0.333.

U21G A41C: the self-cleavage turned out to be 0.404.

U21C G36C: the self-cleavage worked out at 0.366.

Consider U21C G36A, for which the self-cleavage was found to be 0.718.

As to U21C G36U, the self-cleavage came out at 0.665.

For the variant U21G U28A, the self-cleavage was found to be 0.4.

Regarding U21G U28C, the self-cleavage came to 0.381.

In the case of U21G U28G, the self-cleavage was 0.564.

With U21A C29A, the self-cleavage amounted to 0.31.

Regarding U21A C29G, the self-cleavage was 0.354.

Take U21A C29U: the self-cleavage was 0.558.

Take U21A C30A: the self-cleavage was found to be 0.511.

As for U21A C30U, the self-cleavage came out at 0.57.

U21A C30G: the self-cleavage was found to be 0.448.

Take G22A A34G: the self-cleavage was 0.365.

Take G22A A34U: the self-cleavage came out at 0.309.

On to G22A A34C, for which the self-cleavage worked out at 0.286.

With U21G G45U, the self-cleavage is 0.281.

With U21G G45C, the self-cleavage stood at 0.278.

With U21G G45A, the self-cleavage stood at 0.4.

Take U21C G45U: the self-cleavage was determined as 0.553.

On to U21C G45C, for which the self-cleavage was 0.416.

Take U21C G45A: the self-cleavage is 0.436.

With C20G U28G, the self-cleavage stood at 0.323.

In the case of C20G U28A, the self-cleavage was 0.268.

For C20G U28C, the self-cleavage turned out to be 0.261.

On to U21A A34C, for which the self-cleavage came to 0.439.

Regarding U21A A34G, the self-cleavage is 0.387.

In the case of U21A A34U, the self-cleavage was determined as 0.359.

Take U21A A37G: the self-cleavage was 0.365.

Turning to U21A A37C, the self-cleavage is 0.529.

Regarding U21A A37U, the self-cleavage was 0.502.

In the case of C20U, the self-cleavage was determined as 0.697.

As for U21A C38G, the self-cleavage worked out at 0.378.

Turning to U21A C38A, the self-cleavage amounted to 0.363.

Regarding U21A C38U, the self-cleavage came out at 0.401.

As for U21C A37U, the self-cleavage amounted to 0.72.

Regarding U21C A37C, the self-cleavage was 0.907.

Regarding U21C A37G, the self-cleavage turned out to be 0.866.

As for C20U G27A, the self-cleavage is 0.373.

For the variant C20U G27C, the self-cleavage is 0.409.

For C20U G27U, the self-cleavage worked out at 0.332.

As to U21C G25A, the self-cleavage stood at 0.336.

In the case of U21C G25U, the self-cleavage was determined as 0.342.

On to U21C G25C, for which the self-cleavage is 0.308.

For the variant U21C C38G, the self-cleavage turned out to be 0.659.

Consider U21C C38U, for which the self-cleavage is 0.629.

Turning to U21C C38A, the self-cleavage amounted to 0.711.

Consider U21A U32A, for which the self-cleavage amounted to 0.539.

Take U21A U32C: the self-cleavage is 0.508.

For the variant U21A U32G, the self-cleavage is 0.515.

On to U21G U32A, for which the self-cleavage is 0.389.

As to U21G U32G, the self-cleavage worked out at 0.549.

As to U21G U32C, the self-cleavage was found to be 0.523.

Regarding U21A U24A, the self-cleavage was 0.652.

Consider U21A U24G, for which the self-cleavage stood at 0.516.

As for U21A U24C, the self-cleavage came out at 0.329.

Regarding U21C G22U, the self-cleavage was determined as 0.277.

With U21C G22A, the self-cleavage is 0.335.

Turning to U21C G22C, the self-cleavage stood at 0.39.

Turning to U21A U28C, the self-cleavage stood at 0.529.

Consider U21A U28G, for which the self-cleavage was determined as 0.392.

For the variant U21A U28A, the self-cleavage was 0.46.

In the case of U21C U24C, the self-cleavage came out at 0.909.

As to U21C U24A, the self-cleavage amounted to 1.13.

U21C U24G: the self-cleavage was 1.07.

On to U21A G27U, for which the self-cleavage was found to be 0.294.

As for U21A G27C, the self-cleavage came out at 0.296.

For U21A G27A, the self-cleavage amounted to 0.363.

Turning to U21G A42U, the self-cleavage stood at 0.36.

In the case of U21G A42C, the self-cleavage was 0.393.

In the case of U21G A42G, the self-cleavage amounted to 0.223.

Consider U21A G22U, for which the self-cleavage was found to be 0.407.

For U21A G22C, the self-cleavage was 0.31.

As for U21A G22A, the self-cleavage worked out at 0.35.

As for C20U A26U, the self-cleavage was determined as 0.411.

C20U A26C: the self-cleavage came out at 0.321.

On to C20U A26G, for which the self-cleavage worked out at 0.262.
